From article PMC3229523, “Identification of Lactoferricin B Intracellular Targets Using an Escherichia coli Proteome Chip” (PLoS ONE, 2011)
Ends that are not written are not given here. * marks the point of attachment. Biotin = O=C1N[C@H]2[C@H](CS[C@H]2CCCCC(=O)*)N1

Columns and labels:
Experiment in all cases: peptide or protein array; E. coli proteome chip: purified His-tagged proteins printed in duplicate on Fullmoon slides, blocked with 1% BSA; 10 nM N-terminal biotinylated LfcinB with 1% BSA, room temperature, 1 h; detected with DyLight 649-labeled streptavidin, ratio to DyLight 549-labeled anti-His antibody; ProCAT normalisation, local cut-off; triplicate chips
Settings in all cases: both partners purified
YbaO = biological target: T1, YbaO (E. coli K-12, UniProt P0ACJ5 1-152)
T1 construct: YbaO, E. coli K-12
T1 sequence (looked up): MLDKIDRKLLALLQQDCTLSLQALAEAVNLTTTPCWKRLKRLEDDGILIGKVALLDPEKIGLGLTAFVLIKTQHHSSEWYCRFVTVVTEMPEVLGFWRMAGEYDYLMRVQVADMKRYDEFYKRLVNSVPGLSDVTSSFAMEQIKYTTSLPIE

SfmH = biological target: T2, SfmH (E. coli K-12, UniProt P75715 25-327)
T2 construct: SfmH, E. coli K-12
T2 sequence (looked up): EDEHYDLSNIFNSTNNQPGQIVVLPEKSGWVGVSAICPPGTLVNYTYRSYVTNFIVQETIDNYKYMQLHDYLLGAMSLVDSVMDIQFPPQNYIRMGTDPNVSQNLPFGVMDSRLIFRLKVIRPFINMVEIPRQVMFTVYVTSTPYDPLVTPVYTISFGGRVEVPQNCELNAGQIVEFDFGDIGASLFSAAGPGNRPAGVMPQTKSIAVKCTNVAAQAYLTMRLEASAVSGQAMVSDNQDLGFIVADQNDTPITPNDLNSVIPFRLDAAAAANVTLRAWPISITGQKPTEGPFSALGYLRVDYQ

YpdH = biological target: T3, YpdH (E. coli K-12, UniProt P69808 1-108)
T3 construct: YpdH, E. coli K-12
T3 sequence (looked up): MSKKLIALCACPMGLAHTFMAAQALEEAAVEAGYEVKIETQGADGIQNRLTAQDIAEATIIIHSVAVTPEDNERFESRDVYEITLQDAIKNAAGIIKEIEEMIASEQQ

YbcQ = biological target: T4, YbcQ (E. coli K-12, UniProt Q47274 1-127)
T4 construct: YbcQ, E. coli K-12
T4 sequence (looked up): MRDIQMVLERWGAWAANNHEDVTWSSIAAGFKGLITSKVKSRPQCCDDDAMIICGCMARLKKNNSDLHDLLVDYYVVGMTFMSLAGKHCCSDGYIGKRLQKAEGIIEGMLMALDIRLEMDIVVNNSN

YqhC = biological target: T5, YqhC (E. coli K-12, UniProt Q46855 1-318)
T5 construct: YqhC, E. coli K-12
T5 sequence (looked up): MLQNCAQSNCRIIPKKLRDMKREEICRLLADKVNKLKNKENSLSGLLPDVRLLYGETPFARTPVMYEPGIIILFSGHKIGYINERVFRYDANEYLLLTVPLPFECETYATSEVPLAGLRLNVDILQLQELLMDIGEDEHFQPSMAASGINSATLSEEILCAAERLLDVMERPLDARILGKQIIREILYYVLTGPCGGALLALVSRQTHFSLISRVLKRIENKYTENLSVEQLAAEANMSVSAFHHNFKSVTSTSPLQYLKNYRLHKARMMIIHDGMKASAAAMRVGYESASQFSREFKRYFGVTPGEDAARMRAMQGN

AceK = biological target: T6, AceK (E. coli K-12, UniProt P11071 1-578)
T6 construct: AceK, E. coli K-12
T6 sequence (looked up): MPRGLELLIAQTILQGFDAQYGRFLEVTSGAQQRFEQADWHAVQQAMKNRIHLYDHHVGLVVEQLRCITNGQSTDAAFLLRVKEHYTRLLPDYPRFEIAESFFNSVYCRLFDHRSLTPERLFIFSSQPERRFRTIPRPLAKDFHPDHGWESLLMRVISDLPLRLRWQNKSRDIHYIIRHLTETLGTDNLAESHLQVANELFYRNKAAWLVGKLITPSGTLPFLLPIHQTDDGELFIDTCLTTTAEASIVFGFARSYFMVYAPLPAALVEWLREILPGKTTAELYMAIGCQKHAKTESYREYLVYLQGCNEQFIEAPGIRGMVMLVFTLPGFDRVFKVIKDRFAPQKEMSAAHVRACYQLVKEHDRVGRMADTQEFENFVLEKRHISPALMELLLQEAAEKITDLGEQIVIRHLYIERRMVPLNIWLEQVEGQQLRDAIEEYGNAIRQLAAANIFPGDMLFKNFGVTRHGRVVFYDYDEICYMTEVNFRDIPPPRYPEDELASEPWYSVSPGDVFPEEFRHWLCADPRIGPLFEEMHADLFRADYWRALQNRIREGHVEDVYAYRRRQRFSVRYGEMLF

Measured: binding result

B1: N-terminal biotinylated Lactoferricin B (peptide, UniProt P24627 36-60, looked up)
peptide: Biotin-FKCRRWQWRMKKLGAPSITCVRRAF
modifications: ends and bridges not checked
notes: lactoferricin B (LfcinB), cationic antimicrobial peptide of 25 amino acids; also called biotinylated LfcinB; biotin-labeled LfcinB; source: bought: Kelowna Inc
binds: YbaO | SfmH | YpdH | YbcQ | YqhC | AceK
